From patent US20240059785A1

Assays:
[1] = biological target: human CD37 (Homo sapiens CD37) (Homo sapiens) (UniProt P11049); assay: cell-based or functional assay
[2] = biological target: human CD20 (Homo sapiens CD20) (Homo sapiens) (UniProt P11836); assay: cell-based or functional assay
Sequence of human CD20 (Homo sapiens CD20) (Homo sapiens) (P11836 whole entry): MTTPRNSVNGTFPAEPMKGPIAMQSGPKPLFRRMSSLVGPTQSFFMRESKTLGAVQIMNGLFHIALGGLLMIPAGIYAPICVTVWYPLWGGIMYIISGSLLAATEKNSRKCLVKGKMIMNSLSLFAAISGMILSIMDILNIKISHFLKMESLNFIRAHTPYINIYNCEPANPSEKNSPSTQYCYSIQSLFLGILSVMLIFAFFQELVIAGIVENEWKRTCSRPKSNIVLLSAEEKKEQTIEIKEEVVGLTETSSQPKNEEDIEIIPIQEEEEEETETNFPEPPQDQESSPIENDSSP

Sequence of human CD37 (Homo sapiens CD37) (Homo sapiens) (P11049 whole entry): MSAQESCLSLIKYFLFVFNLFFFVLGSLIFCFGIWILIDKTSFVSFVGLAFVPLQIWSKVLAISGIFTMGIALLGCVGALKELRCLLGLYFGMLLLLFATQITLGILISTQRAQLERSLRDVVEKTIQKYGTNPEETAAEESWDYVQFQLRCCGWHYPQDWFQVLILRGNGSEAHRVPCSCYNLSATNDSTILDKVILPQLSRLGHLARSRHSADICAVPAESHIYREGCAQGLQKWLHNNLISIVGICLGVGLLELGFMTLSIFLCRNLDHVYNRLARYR

ADCC reporter assay (FcγRIII-transfected Jurkat NFAT luciferase effector cells), Mean RLU, CD37/CHO target cells, Effector:Target 4:1 [1] [RLU] | ADCC reporter assay (FcγRIII-transfected Jurkat NFAT luciferase effector cells), Mean RLU, CD37/CHO target cells, Effector:Target 8:1 [1] [RLU] | ADCC reporter assay (FcγRIII-transfected Jurkat NFAT luciferase effector cells), Mean RLU, CD20/CHO target cells, Effector:Target 4:1 [2] [RLU] | ADCC reporter assay (FcγRIII-transfected Jurkat NFAT luciferase effector cells), Mean RLU, CD20/CHO target cells, Effector:Target 8:1 [2] [RLU] | ADCC reporter assay (FcγRIII-transfected Jurkat NFAT luciferase effector cells), Mean RLU, Raji target cells (express both hCD20 and hCD37), Effector:Target 4:1 [2] [RLU] | ADCC reporter assay (FcγRIII-transfected Jurkat NFAT luciferase effector cells), Mean RLU, Raji target cells (express both hCD20 and hCD37), Effector:Target 8:1 [2] [RLU] | Substance
20600 | 36200 | 20900 | 36000 | 16600 | 31500 | human IgG1 isotype control antibody (an anti-dinitrophenyl (anti-DNP) antibody)
20500 | 35900 | – | – | – | – | rituximab (antibody)
